From patent publication US20070298412A1 (ZAKRYTOE AKTSIONERNOE OBSCHESTVO EVROGEN, published 2007) come the findings set out here.

Data set [1] concerns the molecule itself. The data set can be described thus: gel filtration (self-association). (SEC sorts molecules by how far they enter the pores of the column.)
Data set [2] concerns the molecule itself. The data set can be described thus: gel electrophoresis of non-heated samples and gel filtration on Sephadex-100 (homodimer). How it is done:
Under these conditions these FPs migrated as yellow fluorescent band at about 50 kDa. […] Purified protein samples (˜1 mg/ml) were loaded onto a Sephadex-100 column (0.7×60 cm) and eluted with a solution of 50 mM phosphate buffer (pH 7.0) and 100 mM NaCl. EGFP, HcRed1 and DsRed2 (Clontech) were used as monomer, dimer and tetramer standards, respectively.

B1: S3-2 red fluorescent mutant of hm2CP (other)
chain: MEGGPALFQSDMTFKIFIDGVVNGQKFTIVADGSSKFPHGDFNVHAVCETGKLPMSWKPICHLIQYGEPFFARYPNGISHFAQECFPEGLSIDRTVRFENDGTMTSHHTYELDGTCVVSRITVNCDGFQPDGPIMRDQLVDILPNETHMFPHGPNAVRQLAFIGFTTADGGLMMSHFDSKMTFNGSRAIKIPGPHFVTTITKQMKDTSDKRDHVCQREVTYAHSVPRITSAI
notes: No tag is stated for the gel-filtration sample; also called S3-2 red fluorescent protein
B1: the binding result in data set [1] is “no binding”.

B2: phiYFP, yellow fluorescent protein from Phialidium sp. (wild type) (other)
chain: MSSGALLFHGKIPYVVEMEGNVDGHTFSIRGKGYGDASVGKVDAQFICTTGDVPVPWSTLVTTLTYGAQCFAKYGPELKDFYKSCMPEGYVQERTITFEGDGVFKTRAEVTFENGSVYNRVKLNGQGFKKDGHVLGKNLEFNFTPHCLYIWGDQANHGLKSAFKIMHEITGSKEDFIVADHTQMNTPIGGGPVHVPEYHHITYHVTLSKDVTDHRDNMSLVETVRAVDCRKTYL
notes: Recombinant protein from the whole coding region, expressed in E. coli and purified on TALON; Found to be a homodimer by gel electrophoresis of non-heated samples and by gel filtration; not shown: N-terminal six-histidine tag from the pQE30 vector
Consider B2, for which the binding result in data set [2] is reported as “binds”.

B3: phiYFP-Y1 (phiYFP mutant with S2P, E174G, I201M) (other)
chain: MPSGALLFHGKIPYVVEMEGNVDGHTFSIRGKGYGDASVGKVDAQFICTTGDVPVPWSTLVTTLTYGAQCFAKYGPELKDFYKSCMPEGYVQERTITFEGDGVFKTRAEVTFENGSVYNRVKLNGQGFKKDGHVLGKNLEFNFTPHCLYIWGDQANHGLKSAFKIMHEITGSKGDFIVADHTQMNTPIGGGPVHVPEYHHMTYHVTLSKDVTDHRDNMSLVETVRAVDCRKTYL
notes: Found to be a homodimer
In the case of B3, the binding result in data set [2] is recorded as “binds”.

B4: phiYFP-M1 (phiYFP mutant with E88D, V103N, M166C, E174G, I201M, T202S, T206K, V221K) (other)
chain: MSSGALLFHGKIPYVVEMEGNVDGHTFSIRGKGYGDASVGKVDAQFICTTGDVPVPWSTLVTTLTYGAQCFAKYGPELKDFYKSCMPDGYVQERTITFEGDGNFKTRAEVTFENGSVYNRVKLNGQGFKKDGHVLGKNLEFNFTPHCLYIWGDQANHGLKSAFKICHEITGSKGDFIVADHTQMNTPIGGGPVHVPEYHHMSYHVKLSKDVTDHRDNMSLKETVRAVDCRKTYL
notes: No tag is stated for the gel-filtration sample
Turning to B4, the binding result in data set [1] is on record as “no binding”.

B5: phiYFP-M0 (phiYFP mutant with S2P, V103N, M166R, E174G, Y198N, I201M, T202S, T206K, V221K) (other)
chain: MPSGALLFHGKIPYVVEMEGNVDGHTFSIRGKGYGDASVGKVDAQFICTTGDVPVPWSTLVTTLTYGAQCFAKYGPELKDFYKSCMPEGYVQERTITFEGDGNFKTRAEVTFENGSVYNRVKLNGQGFKKDGHVLGKNLEFNFTPHCLYIWGDQANHGLKSAFKIRHEITGSKGDFIVADHTQMNTPIGGGPVHVPENHHMSYHVKLSKDVTDHRDNMSLKETVRAVDCRKTYL
notes: No tag is stated for the tested sample
With B5, in data set [1], the binding result is given as “no binding”.
